Measured values as given in article PMC12102759 (2025).

B1: CBL peptide 540-555 (E3 ubiquitin-protein ligase CBL), 16-mer library wild type / YES SH3 (YES1 SH3 domain, residues 90-152) (parent complex)
chain 1: RDLPPPPPPDRPYSVG
chain 2: not shown
B2: PIP5K1C peptide 642-657 (Phosphatidylinositol 4-phosphate 5-kinase type-1 gamma), 16-mer library wild type / TLN1 PTB (TLN1 Phosphotyrosine-binding (PTB) domain, residues 309-401) (parent complex)
chain 1: TDERSWVYSPLHYSAQ
chain 2: GVSFFLVKEKMKGKNKLVPRLLGITKECVMRVDEKTKEVIQEWNLTNIKRWAASPKSFTLDFGDYQDGYYSVQTTEGEQIAQLIAGYIDIILK

Variants of: B1
Assay: proteomic peptide phage display deep mutational scan (ProP-PD DMS): M13 P8 16-mer library selected against immobilised GST-tagged bait for four days (rounds), NGS of the eluted pools per day and pseudo-replica; bait immobilised on MaxiSorp plates (10 µg), library pre-cleared on GST, 2 h binding at 4 °C, five washes; one round per day, days 1-4; value from days 2 and 3

Variant | screen value
chain 1 V15H | 0.00504 average fractional NGS count over selection days 2 and 3 (reads of this peptide / all reads for the bait, averaged over …
chain 1 V15A | 0.00486 average fractional NGS count over selection days 2 and 3 (reads of this peptide / all reads for the bait, averaged over …
chain 1 V15T | 0.000212 average fractional NGS count over selection days 2 and 3 (reads of this peptide / all reads for the bait, averaged over …
chain 1 V15I | 7.73e-05 average fractional NGS count over selection days 2 and 3 (reads of this peptide / all reads for the bait, averaged over …
chain 1 S14Q | 0.000166 average fractional NGS count over selection days 2 and 3 (reads of this peptide / all reads for the bait, averaged over …
chain 1 S14T | 0.0152 average fractional NGS count over selection days 2 and 3 (reads of this peptide / all reads for the bait, averaged over …
chain 1 S14R | 6.61e-05 average fractional NGS count over selection days 2 and 3 (reads of this peptide / all reads for the bait, averaged over …
chain 1 S14D | 0.000862 average fractional NGS count over selection days 2 and 3 (reads of this peptide / all reads for the bait, averaged over …
chain 1 S14Y | 0.00258 average fractional NGS count over selection days 2 and 3 (reads of this peptide / all reads for the bait, averaged over …
chain 1 S14F | 0.0172 average fractional NGS count over selection days 2 and 3 (reads of this peptide / all reads for the bait, averaged over …
chain 1 S14M | 0.00137 average fractional NGS count over selection days 2 and 3 (reads of this peptide / all reads for the bait, averaged over …
chain 1 S14A | 0.00883 average fractional NGS count over selection days 2 and 3 (reads of this peptide / all reads for the bait, averaged over …
chain 1 S14L | 0.0182 average fractional NGS count over selection days 2 and 3 (reads of this peptide / all reads for the bait, averaged over …
chain 1 S14I | 0.00339 average fractional NGS count over selection days 2 and 3 (reads of this peptide / all reads for the bait, averaged over …
chain 1 S14H | 0.000385 average fractional NGS count over selection days 2 and 3 (reads of this peptide / all reads for the bait, averaged over …
chain 1 P4M | 0.000259 average fractional NGS count over selection days 2 and 3 (reads of this peptide / all reads for the bait, averaged over …
chain 1 P4I | 0.000839 average fractional NGS count over selection days 2 and 3 (reads of this peptide / all reads for the bait, averaged over …
chain 1 P4T | 0.00019 average fractional NGS count over selection days 2 and 3 (reads of this peptide / all reads for the bait, averaged over …
chain 1 P4Q | 0.000154 average fractional NGS count over selection days 2 and 3 (reads of this peptide / all reads for the bait, averaged over …
chain 1 P4E | 0.000136 average fractional NGS count over selection days 2 and 3 (reads of this peptide / all reads for the bait, averaged over …
chain 1 P4L | 0.000253 average fractional NGS count over selection days 2 and 3 (reads of this peptide / all reads for the bait, averaged over …
chain 1 P4H | 8.18e-05 average fractional NGS count over selection days 2 and 3 (reads of this peptide / all reads for the bait, averaged over …
chain 1 P12Y | 0.000171 average fractional NGS count over selection days 2 and 3 (reads of this peptide / all reads for the bait, averaged over …

Variant | screen value
chain 1 P12A | 0.00443 average fractional NGS count over selection days 2 and 3 (reads of this peptide / all reads for the bait, averaged over …
chain 1 P12Q | 0.0162 average fractional NGS count over selection days 2 and 3 (reads of this peptide / all reads for the bait, averaged over …
chain 1 P12I | 0.00216 average fractional NGS count over selection days 2 and 3 (reads of this peptide / all reads for the bait, averaged over …
chain 1 P12H | 0.00204 average fractional NGS count over selection days 2 and 3 (reads of this peptide / all reads for the bait, averaged over …
chain 1 P12F | 0.00458 average fractional NGS count over selection days 2 and 3 (reads of this peptide / all reads for the bait, averaged over …
chain 1 Y13G | 8.54e-05 average fractional NGS count over selection days 2 and 3 (reads of this peptide / all reads for the bait, averaged over …
chain 1 Y13A | 0.00126 average fractional NGS count over selection days 2 and 3 (reads of this peptide / all reads for the bait, averaged over …
chain 1 Y13E | 0.000222 average fractional NGS count over selection days 2 and 3 (reads of this peptide / all reads for the bait, averaged over …
chain 1 Y13I | 0.00384 average fractional NGS count over selection days 2 and 3 (reads of this peptide / all reads for the bait, averaged over …
chain 1 Y13R | 0.000326 average fractional NGS count over selection days 2 and 3 (reads of this peptide / all reads for the bait, averaged over …
chain 1 Y13L | 0.00594 average fractional NGS count over selection days 2 and 3 (reads of this peptide / all reads for the bait, averaged over …
chain 1 P5S | 0.00042 average fractional NGS count over selection days 2 and 3 (reads of this peptide / all reads for the bait, averaged over …
chain 1 P5Q | 0.00016 average fractional NGS count over selection days 2 and 3 (reads of this peptide / all reads for the bait, averaged over …
chain 1 P5F | 0.00079 average fractional NGS count over selection days 2 and 3 (reads of this peptide / all reads for the bait, averaged over …
chain 1 P5A | 0.000329 average fractional NGS count over selection days 2 and 3 (reads of this peptide / all reads for the bait, averaged over …
chain 1 P5H | 0.00214 average fractional NGS count over selection days 2 and 3 (reads of this peptide / all reads for the bait, averaged over …
chain 1 P5Y | 0.000822 average fractional NGS count over selection days 2 and 3 (reads of this peptide / all reads for the bait, averaged over …
chain 1 P5I | 0.0162 average fractional NGS count over selection days 2 and 3 (reads of this peptide / all reads for the bait, averaged over …
chain 1 P5R | 0.00132 average fractional NGS count over selection days 2 and 3 (reads of this peptide / all reads for the bait, averaged over …
chain 1 P5K | 0.0018 average fractional NGS count over selection days 2 and 3 (reads of this peptide / all reads for the bait, averaged over …
chain 1 P5M | 0.00164 average fractional NGS count over selection days 2 and 3 (reads of this peptide / all reads for the bait, averaged over …
chain 1 P5L | 0.00149 average fractional NGS count over selection days 2 and 3 (reads of this peptide / all reads for the bait, averaged over …
chain 1 P5G | 0.00951 average fractional NGS count over selection days 2 and 3 (reads of this peptide / all reads for the bait, averaged over …

Variant | screen value
chain 1 P5W | 0.000217 average fractional NGS count over selection days 2 and 3 (reads of this peptide / all reads for the bait, averaged over …
chain 1 P5T | 0.00773 average fractional NGS count over selection days 2 and 3 (reads of this peptide / all reads for the bait, averaged over …
chain 1 D10H | 0.00429 average fractional NGS count over selection days 2 and 3 (reads of this peptide / all reads for the bait, averaged over …
chain 1 D10E | 0.0012 average fractional NGS count over selection days 2 and 3 (reads of this peptide / all reads for the bait, averaged over …
chain 1 D10M | 0.00163 average fractional NGS count over selection days 2 and 3 (reads of this peptide / all reads for the bait, averaged over …
chain 1 D10F | 0.000931 average fractional NGS count over selection days 2 and 3 (reads of this peptide / all reads for the bait, averaged over …
chain 1 D10Q | 0.000233 average fractional NGS count over selection days 2 and 3 (reads of this peptide / all reads for the bait, averaged over …
chain 1 D10P | 0.000173 average fractional NGS count over selection days 2 and 3 (reads of this peptide / all reads for the bait, averaged over …
chain 1 D10K | 0.00142 average fractional NGS count over selection days 2 and 3 (reads of this peptide / all reads for the bait, averaged over …
chain 1 D10A | 0.00828 average fractional NGS count over selection days 2 and 3 (reads of this peptide / all reads for the bait, averaged over …
chain 1 D10V | 0.000894 average fractional NGS count over selection days 2 and 3 (reads of this peptide / all reads for the bait, averaged over …
chain 1 D10W | 0.00158 average fractional NGS count over selection days 2 and 3 (reads of this peptide / all reads for the bait, averaged over …
chain 1 D10I | 0.000128 average fractional NGS count over selection days 2 and 3 (reads of this peptide / all reads for the bait, averaged over …
chain 1 D10N | 0.000163 average fractional NGS count over selection days 2 and 3 (reads of this peptide / all reads for the bait, averaged over …
chain 1 L3I | 0.00353 average fractional NGS count over selection days 2 and 3 (reads of this peptide / all reads for the bait, averaged over …
chain 1 L3S | 6.99e-05 average fractional NGS count over selection days 2 and 3 (reads of this peptide / all reads for the bait, averaged over …
chain 1 L3E | 5.03e-05 average fractional NGS count over selection days 2 and 3 (reads of this peptide / all reads for the bait, averaged over …
chain 1 L3K | 0.000147 average fractional NGS count over selection days 2 and 3 (reads of this peptide / all reads for the bait, averaged over …
chain 1 L3A | 0.000233 average fractional NGS count over selection days 2 and 3 (reads of this peptide / all reads for the bait, averaged over …
chain 1 L3F | 9.32e-05 average fractional NGS count over selection days 2 and 3 (reads of this peptide / all reads for the bait, averaged over …
chain 1 L3W | 0.000182 average fractional NGS count over selection days 2 and 3 (reads of this peptide / all reads for the bait, averaged over …
chain 1 L3M | 0.00032 average fractional NGS count over selection days 2 and 3 (reads of this peptide / all reads for the bait, averaged over …

Variants of: B2
Assay: as above

Variant | screen value
chain 1 V7F | 0.00058 average fractional NGS count over selection days 2 and 3 (reads of this peptide / all reads for the bait, averaged over …
chain 1 S14E | 0.00034 average fractional NGS count over selection days 2 and 3 (reads of this peptide / all reads for the bait, averaged over …
chain 1 W6F | 0.000288 average fractional NGS count over selection days 2 and 3 (reads of this peptide / all reads for the bait, averaged over …
chain 1 D2G | 0.00241 average fractional NGS count over selection days 2 and 3 (reads of this peptide / all reads for the bait, averaged over …
chain 1 S5Q | 0.000811 average fractional NGS count over selection days 2 and 3 (reads of this peptide / all reads for the bait, averaged over …
chain 1 S5G | 0.000211 average fractional NGS count over selection days 2 and 3 (reads of this peptide / all reads for the bait, averaged over …
chain 1 S5H | 0.00161 average fractional NGS count over selection days 2 and 3 (reads of this peptide / all reads for the bait, averaged over …
